Data taken from article PMC6530996, “HspB1 phosphorylation regulates its intramolecular dynamics and mechanosensitive molecular chaperone interaction with filamin C” (Science Advances, 2019).
Values belong to the molecule of their own block, whether it stands above or below them. No end group written: not given here.

Assays:
FLNCd18–21 [1] = target: T1, FLNCd18–21 (Homo sapiens, UniProt Q14315); assay: native MS peptide titration / complex detection with FLNCd18–21; format: binding; details: for complex formation with FLNCd18–21: native MS, 200 mM ammonium acetate pH 6.9, peptides at 30 μM with 5 μM FLNCd18–21 (fig. S5D)
T1 construct: WT, residues 1943 to 2408 from UniProt ID Q14315; 6xHis (C); EEF (C); made in house; host or cells: E. coli BL21(DE3) pLysS
T1 sequence (Q14315 1943-2408): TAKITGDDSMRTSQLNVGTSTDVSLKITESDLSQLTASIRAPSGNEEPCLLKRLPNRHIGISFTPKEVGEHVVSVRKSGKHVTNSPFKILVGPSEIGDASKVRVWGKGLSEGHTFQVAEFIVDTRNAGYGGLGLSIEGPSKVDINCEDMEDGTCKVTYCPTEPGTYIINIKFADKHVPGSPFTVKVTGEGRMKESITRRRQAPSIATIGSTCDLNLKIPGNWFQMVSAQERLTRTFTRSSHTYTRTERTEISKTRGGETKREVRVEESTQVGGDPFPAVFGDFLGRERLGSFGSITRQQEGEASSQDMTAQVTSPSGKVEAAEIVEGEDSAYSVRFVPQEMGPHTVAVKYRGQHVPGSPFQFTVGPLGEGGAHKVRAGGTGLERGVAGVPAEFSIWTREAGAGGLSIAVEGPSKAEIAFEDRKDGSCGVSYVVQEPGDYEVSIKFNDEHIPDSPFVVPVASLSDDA
Source text: To isolate a stable HspB1-FLNCd18–21 complex and localize the binding within HspB1, we performed native ion mobility MS (IM-MS) experiments. […] Next, we mixed FLNCd18–21 with either HspB1_84–171 or peptides mimicking the PPR, because this region is phosphorylated in the MLP KO mice (Fig. 1C) and generally upon biomechanical stress ([26]) and becomes exposed thereafter. This strategy of using segments of HspB1 meant that we could avoid the problems of insolubilization of the full-length protein upon interaction with FLNC d18–21, as well as generally mitigate the confounding effects associated with the chaperone’s intrinsic polydispersity.
By quantifying the relative abundances of FLNCd18–21 and the peptide-bound species, we could determine binding affinities (Fig. 4B, lower panel, and fig. S4G). We obtained similar dissociation constants (KDs) of 130 ± 17 μM (HspB1_80–88) and 110 ± 10 μM (^PHspB1_80–88), indicating weak binding that is not affected substantially by phosphorylation. These findings contrast with the notable effect of HspB1 phosphomimicry on the interaction of full-length chaperone with the FLNC fragment (Fig. 1E). However, they can be rationalized by phosphorylation increasing the effective concentration of the binding region by modulating its conformational state (Fig. 2B and fig. S3) and leading to dimer (Fig. 2D) and oligomer disassembly ([22], [23]). To localize binding of HspB1_80–88 to domains with Ig folds or to the d20 insertion (which is possibly disordered), we prepared a modified FLNC construct lacking the 82 insertion residues (FLNCd18–21,ΔI).
The region of human FLNC comprising domains 18 to 21 (WT, residues 1943 to 2408 from UniProt ID Q14315; ∆I, residues 1943 to 2408 excluding 2163 to 2243) was encoded in a modified pET23a/EEF with C-terminal 6× His and EEF tags. The plasmid was transformed into E. coli BL21(DE3) pLysS cells (Agilent). To generate the Mβ construct, mutations E2136R and I2138E were introduced by site-directed mutagenesis. Cells were grown in LB at 37°C until an OD600 of 0.6 to 0.8 was reached. […] Purity was assessed by SDS-PAGE, and protein was stored in MS buffer at −80°C and used for experiments within 2 weeks of purification, after noticing in initial preparations some propensity for destabilization and aggregation following long-term storage. […]
Because HspB1 can form disulfide-linked dimers, experiments involving the ACD were performed in the presence of 10-fold molar excess DTT. […] Native MS and IM-MS data were recorded on a Synapt G1 mass spectrometer (Waters) modified for the transmission of intact noncovalent protein complexes. HspB1_77–171 variants were analyzed at a concentration of 10 μM in 200 mM ammonium acetate (pH 6.9). […]

EEF-tagged FLNCd18–21 = assay: coimmunoprecipitation of recombinant proteins; format: binding, human; details: T7 antibody pull-down, 1 μg HspB1, 10 μg FLNCd18–21, 1 hour, room temperature
Experimental: (§1) Next, to validate the interaction in vitro, we expressed EEF-tagged human FLNC domains 18 to 21, encompassing the apparent HspB1 binding site ([16]), and full-length human HspB1 attached to a T7 tag. […] To investigate the effect of HspB1 phosphorylation on the interaction, we expressed WT human HspB1 and ^3PHspB1, a triple mutant containing phosphomimetic Ser to Asp substitutions at residues 15, 78, and 82. Upon incubation with FLNCd18–21 in vitro, we noticed that mixtures accumulated insoluble protein aggregates, while isolated proteins remained soluble. […] The results support an interaction between HspB1 and FLNCd18–21 to form large complexes that can be modulated by phosphorylation of HspB1.
T7-tagged purified recombinant HspB1 protein (1 μg) was added to 10 μg of EEF-tagged recombinant FLNCd18–21 in immunoprecipitation (IP) buffer [0.05% Triton X-100, 1% bovine serum albumin, protease inhibitors (Roche mini complete EDTA-free tablets) in phosphate-buffered saline (PBS)] and incubated for 1 hour, shaking at room temperature. This was followed by another 30-min incubation, shaking at room temperature after the addition of 0.5 μg of anti-T7 (69522, Novagen) or mouse IgG2b isotype (ab18457, Abcam) antibody. Next, 25 μl of protein G Sepharose resin (PC-G5, Generon) was added to each tube and incubated for 1 hour, shaking at room temperature. […]

FLNCd18–21 [2] = target: T1, FLNCd18–21; assay: SDS-PAGE aggregation assay with FLNCd18–21; format: biochemical; details: 80 μM HspB1 + 40 μM FLNCd18–21 (2:1), 200 mM ammonium acetate pH 6.9, 500 μM DTT, 25°C, 90 min, densitometry
Experimental: as §1
HspB1 (WT or 3P) was mixed with FLNCd18–21 at a 2:1 ratio (80 and 40 μM, respectively) in 200 mM ammonium acetate (pH 6.9) with 500 μM DTT and incubated at 25°C for 90 min. Aliquots were removed periodically and pelleted at 13,000g at 10°C for 10 min. Soluble fractions were diluted threefold with 200 mM ammonium acetate for analysis by SDS-PAGE, and pellets were resuspended in the same volume of 200 mM ammonium acetate and solubilized upon addition of the SDS-PAGE loading buffer. Gel bands were quantified by densitometry, using the raw intensities of FLNC and HspB1 bands to extract relative soluble and insoluble proportions at each time point.

[3] = target: T2, human FLNC domains 18 to 21 (FLNC_(d18–21)), EEF-tagged (human, UniProt Q14315 1943-2408); assay: cell-based or functional assay
T2 sequence (looked up): T1 sequence (Q14315 1943-2408)

[4] = target: T2, human FLNC domains 18 to 21 …; assay: native MS; native IM-MS of mixtures of FLNC_(d18–21) or FLNC_(d18–21,ΔI) with HspB1_(84–171), HspB1 peptides or an excess of control peptides; 200 mM ammonium acetate pH 6.9; details: both partners purified
[5] = target: T2, human FLNC domains 18 to 21 …; assay: native MS; titration: FLNC_(d18–21) constant at 5 μM, peptide 5 to 160 μM, 200 mM ammonium acetate pH 6.9, acetonitrile vapor; fit with three equivalent binding sites (UniDec); details: both partners purified

Kd (FLNCd18–21 [1]; native MS titration, 5 μM FLNCd18–21, 5 to 160 μM peptide, 200 mM ammonium acetate pH 6.9, minimum three technical repeats, model of three equivalent binding sites, 500 bootstraps, apparent KD, read-out: dissociation constant KD (apparent)): > 100 µM
Molecule: QLSSGVSEI [HspB1_80–88]

Molecule: T7-tagged HspB1: Full-length WT HspB1 with an N-terminal T7 tag
coimmunoprecipitation of FLNCd18–21 (EEF-tagged FLNCd18–21): pulled down both HspB1 and FLNCd18–21 | coimmunoprecipitation of FLNCd18–21 (EEF-tagged FLNCd18–21; listed as full-length human HspB1 attached to a T7 tag): confirming a direct interaction

Molecule: WT human HspB1: Full-length WT HspB1
migration to pelleted fraction of mixture with FLNCd18–21 (FLNCd18–21 [2]): both proteins migrated to the pelleted fraction over time

complex formation with FLNCd18–21 (FLNCd18–21 [1]): No appreciable complex is detected
Molecule: HspB1_177–186: Peptide from human HspB1, C-terminal residues 177 to 186 (NEITIPVTFE; UniProt P04792 177-186, looked up, fragment) [reference compound]

Molecule: ^3PHspB1: Full-length human HspB1 with Ser to Asp phosphomimic substitutions at residues 15, 78 and 82
migration to pelleted fraction of mixture with FLNCd18–21 (FLNCd18–21 [2]): substantially increased by phosphomimicry

complex formation with FLNCd18–21 (FLNCd18–21 [1]): Complexes were not observed | complex formation with FLNCd18–21 (FLNCd18–21 [1]; listed as HspB184-171): No complex is observed
Molecule: HspB1_84–171: Human HspB1 α-crystallin domain (ACD)

activation required for the transition of unfolding intermediate B to final state C of FLNC_(d18–21) with one peptide bound (coulombically steered unfolding, IM-MS) [3]: ~75 V | stoichiometry N [4]: ≤ 2 | Kd [5]: 110 ± 10 µM | stoichiometry N [5]: ≤ 3
B1: ^PHspB1_(80–88) phosphorylated peptide (peptide, UniProt P04792 80-88, looked up)
peptide: QLSSGVSEI
modifications: also: phosphorylated, site not given here
notes: N-terminal acetylation open as for m13; also called phosphopeptide; source: synthetic peptide, bought: Biomatik
